Experimental findings from article PMC6592955 are described below.

In one assay the target is calmodulin (CaM) (UniProt P0DP26). Put plainly: 2pFLIM-FRET in single dendritic spines. Conditions: reference: wild type.
In assay [1] the target is mEGFP-CaMKIIα^T286A (Rattus norvegicus) (UniProt P11275). Kind of assay: FRET or BRET; 2pFLIM-FRET in single dendritic spines of CA1 pyramidal neurons, organotypic hippocampal slices; single glutamate uncaging pulse; room temperature; decay fitted with a single exponential; T286A in slices of Camk2a^T286A knock-in mice.
The target of assay [2] is mEGFP-CaMKIIα^T305A/T306A (Rattus norvegicus) (UniProt P11275). Described as above.
In assay [3] the target is mEGFP-CaMKIIα^T286A (Rattus norvegicus) (UniProt P11275). Kind of assay: FRET or BRET; 2pFLIM-FRET in single dendritic spines of CA1 pyramidal neurons, organotypic hippocampal slices; glutamate uncaging at near physiological temperature (34–35 °C); Supplementary Fig. 2.
Assay [4] has as its target mEGFP-CaMKIIα (wildtype) (Rattus norvegicus) (UniProt P11275). Put plainly: FRET or BRET; 2pFLIM-FRET in single dendritic spines of CA1 pyramidal neurons, organotypic hippocampal slices; single glutamate uncaging pulse; room temperature; decay fitted with a single exponential; T286A in slices of Camk2a^T286A knock-in mice.
For assay [5] the target is unchanged. Put plainly: FRET or BRET; 2pFLIM-FRET in single dendritic spines of CA1 pyramidal neurons, organotypic hippocampal slices; glutamate uncaging at near physiological temperature (34–35 °C); Supplementary Fig. 2.

For “CaMKIIα (from UniProt P11275) T305A/T306A”, in the assay with calmodulin (CaM) (sites T305,T306), the “other: dissociation time constant” value was “stronger; reference 2.9 ± 0.3” and the “other: fast dissociation time constant” value is given as “stronger; reference 3.2 ± 0.6”.
Consider CaMKIIα (from UniProt P11275) T286A, for which, in the assay with calmodulin (CaM) (sites T286), the “other: dissociation time constant” value is “weaker; reference 2.9 ± 0.3” and the “other: fast dissociation time constant” value is reported as “weaker; reference 3.2 ± 0.6”.
Regarding “mCherry-CaM (from UniProt P0DP26 1-149) (natural protein)”, the figures for the dissociation time constant (tau) in assay [1], in assay [2] and in assay [3] were 1.2 s, 7.5 s and 0.3 s, respectively.
As to “mCherry-CaM (from UniProt P0DP26 1-149) (natural protein; other documents disagree on this pair)”, in assay [4], the dissociation time constant (tau) amounted to 2.9 s and the koff came to 0.33 s⁻¹. Moreover, in assay [5], the dissociation time constant (tau) turned out to be 0.4 s.
